Assay results reported in the supplement of paper PMC10065799, “High-throughput profiling of sequence recognition by tyrosine kinases and SH2 domains using bacterial peptide display” (eLife, 2023).

Key:
SHP2-C SH2 = experiment: SH2 binding enrichment of the phosphorylated peptide, bacterial display (enrichment ratio); higher = better substrate or ligand; peptides without Tyr show the background
c-Src SH2 = experiment: as above
Grb2 SH2 = Grb2 SH2 (UniProt P62993); experiment: as above
c-Src = experiment: phosphorylation enrichment, bacterial display (enrichment ratio); higher = better substrate or ligand; peptides without Tyr show the background
FGFR3 = FGFR3 (UniProt P22607); experiment: as above
EPHB1 = EPHB1 (UniProt P54762); experiment: as above
Jak2 = Jak2 (UniProt O60674); experiment: as above
Fer (mouse) = experiment: as above
Fes = Fes (UniProt P07332); experiment: as above
AncSZ = experiment: as above
c-Abl (mouse) = experiment: as above
MERTK = MERTK (UniProt Q12866); experiment: as above
FGFR1 = FGFR1 (UniProt P11362); experiment: as above
EPHB2 = EPHB2 (UniProt P29323); experiment: as above
Fyn = Fyn (UniProt P06241); experiment: as above
Hck = Hck (UniProt P08631); experiment: as above
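For SH2 binding enrichment of the phosphorylated peptide, bacterial display in this document: peptide library displayed on the E. coli surface as eCPX fusions, selected cells deep-sequenced, score is each peptide's frequency after selection divided by its frequency in the input.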
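For phosphorylation enrichment, bacterial display in this document: 11-residue human phosphosite peptides and single-mutation variants displayed on the E. coli surface, counted by deep sequencing, each peptide's frequency after selection divided by its frequency in the unselected input library; frequency after pTyr selection over input frequency; kinase dosed for 20-30% of maximal phosphorylation in three min.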

Chain of FGFR3 (P22607 whole entry, looked up): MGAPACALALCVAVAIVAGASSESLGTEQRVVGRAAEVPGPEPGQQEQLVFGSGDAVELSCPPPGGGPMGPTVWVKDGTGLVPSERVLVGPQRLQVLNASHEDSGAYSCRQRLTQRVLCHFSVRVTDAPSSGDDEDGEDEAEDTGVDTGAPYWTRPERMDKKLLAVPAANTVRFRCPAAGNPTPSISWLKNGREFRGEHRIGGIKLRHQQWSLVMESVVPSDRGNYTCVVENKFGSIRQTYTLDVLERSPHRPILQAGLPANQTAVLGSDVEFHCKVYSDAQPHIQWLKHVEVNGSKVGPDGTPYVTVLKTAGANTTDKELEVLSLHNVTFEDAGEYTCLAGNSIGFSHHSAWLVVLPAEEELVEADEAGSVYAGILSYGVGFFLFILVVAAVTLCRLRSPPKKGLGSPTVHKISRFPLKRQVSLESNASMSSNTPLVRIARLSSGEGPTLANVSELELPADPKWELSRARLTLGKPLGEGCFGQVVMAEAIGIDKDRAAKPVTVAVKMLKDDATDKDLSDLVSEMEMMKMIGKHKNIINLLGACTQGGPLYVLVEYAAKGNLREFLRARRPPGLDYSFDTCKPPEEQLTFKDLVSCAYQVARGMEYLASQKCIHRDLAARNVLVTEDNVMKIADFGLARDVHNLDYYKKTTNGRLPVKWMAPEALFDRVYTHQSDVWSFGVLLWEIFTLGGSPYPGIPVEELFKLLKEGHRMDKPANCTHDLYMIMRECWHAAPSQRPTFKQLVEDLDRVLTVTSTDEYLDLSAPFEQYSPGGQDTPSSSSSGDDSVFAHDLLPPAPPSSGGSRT
Chain of FGFR1 (P11362 whole entry, looked up): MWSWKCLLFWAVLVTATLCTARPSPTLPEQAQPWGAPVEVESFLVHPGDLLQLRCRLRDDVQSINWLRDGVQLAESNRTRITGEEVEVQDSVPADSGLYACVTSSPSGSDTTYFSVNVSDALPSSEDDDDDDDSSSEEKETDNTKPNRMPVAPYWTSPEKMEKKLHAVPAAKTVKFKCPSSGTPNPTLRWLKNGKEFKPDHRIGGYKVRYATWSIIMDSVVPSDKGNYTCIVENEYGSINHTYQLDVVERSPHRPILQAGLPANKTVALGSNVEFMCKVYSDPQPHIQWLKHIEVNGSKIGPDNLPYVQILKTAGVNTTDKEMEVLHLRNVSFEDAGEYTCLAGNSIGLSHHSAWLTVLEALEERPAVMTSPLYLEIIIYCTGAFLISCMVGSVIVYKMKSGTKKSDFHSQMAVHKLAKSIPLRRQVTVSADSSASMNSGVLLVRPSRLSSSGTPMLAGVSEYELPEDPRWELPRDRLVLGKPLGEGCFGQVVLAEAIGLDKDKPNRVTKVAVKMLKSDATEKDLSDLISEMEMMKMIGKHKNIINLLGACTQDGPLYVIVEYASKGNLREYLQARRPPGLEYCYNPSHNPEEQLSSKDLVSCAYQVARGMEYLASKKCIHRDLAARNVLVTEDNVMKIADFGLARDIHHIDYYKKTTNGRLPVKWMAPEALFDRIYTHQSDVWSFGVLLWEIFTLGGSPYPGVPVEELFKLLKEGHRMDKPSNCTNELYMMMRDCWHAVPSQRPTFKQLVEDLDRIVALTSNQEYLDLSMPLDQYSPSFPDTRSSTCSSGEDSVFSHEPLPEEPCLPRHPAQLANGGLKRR
Chain of Jak2 (O60674 whole entry, looked up): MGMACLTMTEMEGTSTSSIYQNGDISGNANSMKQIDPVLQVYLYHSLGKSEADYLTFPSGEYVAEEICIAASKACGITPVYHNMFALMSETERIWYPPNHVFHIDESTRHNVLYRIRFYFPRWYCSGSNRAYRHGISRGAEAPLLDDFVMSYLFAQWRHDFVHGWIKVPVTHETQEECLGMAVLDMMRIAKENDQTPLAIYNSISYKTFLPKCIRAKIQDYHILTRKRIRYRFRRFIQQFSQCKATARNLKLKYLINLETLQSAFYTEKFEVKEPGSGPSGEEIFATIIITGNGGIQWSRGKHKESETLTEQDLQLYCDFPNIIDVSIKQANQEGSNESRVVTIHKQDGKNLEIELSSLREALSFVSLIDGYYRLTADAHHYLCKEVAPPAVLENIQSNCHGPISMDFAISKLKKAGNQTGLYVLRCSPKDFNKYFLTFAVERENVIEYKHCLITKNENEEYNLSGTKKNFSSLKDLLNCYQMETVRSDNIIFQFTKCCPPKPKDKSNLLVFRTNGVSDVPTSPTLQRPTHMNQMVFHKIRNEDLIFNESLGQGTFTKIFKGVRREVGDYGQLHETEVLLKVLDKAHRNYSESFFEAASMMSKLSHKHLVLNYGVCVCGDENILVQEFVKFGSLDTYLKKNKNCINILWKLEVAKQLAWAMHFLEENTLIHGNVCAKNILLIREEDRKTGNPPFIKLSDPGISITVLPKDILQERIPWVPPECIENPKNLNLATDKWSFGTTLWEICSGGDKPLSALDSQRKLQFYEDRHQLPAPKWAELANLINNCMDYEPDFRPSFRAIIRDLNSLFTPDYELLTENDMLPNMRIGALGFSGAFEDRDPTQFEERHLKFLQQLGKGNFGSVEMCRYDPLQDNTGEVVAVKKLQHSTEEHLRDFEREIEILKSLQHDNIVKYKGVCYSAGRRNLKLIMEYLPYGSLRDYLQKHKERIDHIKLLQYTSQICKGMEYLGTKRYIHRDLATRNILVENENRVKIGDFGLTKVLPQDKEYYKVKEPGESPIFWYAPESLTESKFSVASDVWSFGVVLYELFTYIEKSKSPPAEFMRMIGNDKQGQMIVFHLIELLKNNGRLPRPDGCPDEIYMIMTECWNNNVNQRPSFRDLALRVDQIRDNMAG
Chain of Fes (P07332 whole entry, looked up): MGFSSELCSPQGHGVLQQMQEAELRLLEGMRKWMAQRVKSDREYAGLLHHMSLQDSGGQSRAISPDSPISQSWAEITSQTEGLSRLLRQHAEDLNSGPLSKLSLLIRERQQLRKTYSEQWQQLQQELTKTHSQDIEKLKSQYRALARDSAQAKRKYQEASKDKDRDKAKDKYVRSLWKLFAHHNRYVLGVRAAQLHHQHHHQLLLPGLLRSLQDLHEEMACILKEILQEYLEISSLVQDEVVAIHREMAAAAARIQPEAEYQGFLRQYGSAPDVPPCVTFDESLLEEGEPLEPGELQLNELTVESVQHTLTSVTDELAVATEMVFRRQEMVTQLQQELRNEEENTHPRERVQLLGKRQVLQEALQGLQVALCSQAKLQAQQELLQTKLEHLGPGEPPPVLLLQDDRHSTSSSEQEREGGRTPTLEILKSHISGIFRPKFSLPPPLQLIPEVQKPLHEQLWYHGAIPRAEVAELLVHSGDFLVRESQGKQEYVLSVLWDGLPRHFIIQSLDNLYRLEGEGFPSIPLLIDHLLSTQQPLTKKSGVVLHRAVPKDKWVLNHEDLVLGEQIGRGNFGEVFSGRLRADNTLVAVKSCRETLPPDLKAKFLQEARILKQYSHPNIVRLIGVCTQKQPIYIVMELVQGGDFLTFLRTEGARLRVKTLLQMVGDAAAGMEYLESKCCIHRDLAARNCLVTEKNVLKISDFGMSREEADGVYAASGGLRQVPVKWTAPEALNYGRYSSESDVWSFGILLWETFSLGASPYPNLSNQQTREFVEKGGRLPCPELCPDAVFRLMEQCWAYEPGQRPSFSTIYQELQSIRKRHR
Chain of Hck (P08631 whole entry, looked up, the tested form may be a part): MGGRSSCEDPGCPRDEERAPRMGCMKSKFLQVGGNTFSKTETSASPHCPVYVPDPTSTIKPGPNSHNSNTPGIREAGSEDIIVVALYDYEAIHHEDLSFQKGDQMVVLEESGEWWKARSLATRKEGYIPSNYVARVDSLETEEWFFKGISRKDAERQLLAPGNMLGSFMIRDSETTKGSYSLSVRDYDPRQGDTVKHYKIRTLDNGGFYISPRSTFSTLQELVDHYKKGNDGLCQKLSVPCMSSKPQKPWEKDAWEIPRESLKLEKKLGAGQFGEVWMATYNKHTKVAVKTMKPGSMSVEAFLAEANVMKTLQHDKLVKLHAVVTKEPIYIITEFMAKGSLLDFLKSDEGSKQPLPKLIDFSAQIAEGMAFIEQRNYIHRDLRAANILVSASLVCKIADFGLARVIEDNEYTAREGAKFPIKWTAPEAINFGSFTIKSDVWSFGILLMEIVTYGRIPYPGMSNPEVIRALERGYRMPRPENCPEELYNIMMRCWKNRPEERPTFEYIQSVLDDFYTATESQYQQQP
Chain of Fyn (P06241 whole entry, looked up): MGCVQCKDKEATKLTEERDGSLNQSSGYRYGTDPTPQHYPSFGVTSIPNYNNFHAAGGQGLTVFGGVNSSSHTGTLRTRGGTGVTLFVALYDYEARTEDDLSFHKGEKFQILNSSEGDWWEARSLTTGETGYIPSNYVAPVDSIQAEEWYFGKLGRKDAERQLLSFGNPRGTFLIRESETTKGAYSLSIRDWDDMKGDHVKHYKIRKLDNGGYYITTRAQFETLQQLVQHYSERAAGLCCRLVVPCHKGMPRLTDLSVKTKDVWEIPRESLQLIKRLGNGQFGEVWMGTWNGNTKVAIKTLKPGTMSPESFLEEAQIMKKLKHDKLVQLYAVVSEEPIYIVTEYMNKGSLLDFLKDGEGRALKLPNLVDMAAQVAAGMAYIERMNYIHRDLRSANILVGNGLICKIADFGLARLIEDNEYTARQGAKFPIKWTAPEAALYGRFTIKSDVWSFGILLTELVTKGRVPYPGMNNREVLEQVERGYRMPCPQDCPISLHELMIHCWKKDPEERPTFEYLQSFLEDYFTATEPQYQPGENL

| Sequence | SH2 binding enrichment (SHP2-C SH2) | SH2 binding enrichment (c-Src SH2) | SH2 binding enrichment (Grb2 SH2) | phosphorylation enrichment (c-Src) | phosphorylation enrichment (FGFR3) | phosphorylation enrichment (EPHB1) | phosphorylation enrichment (Jak2) | phosphorylation enrichment (Fer (mouse)) | phosphorylation enrichment (Fes) | phosphorylation enrichment (AncSZ) | phosphorylation enrichment (c-Abl (mouse)) | phosphorylation enrichment (MERTK) | phosphorylation enrichment (FGFR1) | phosphorylation enrichment (EPHB2) | phosphorylation enrichment (Fyn) | phosphorylation enrichment (Hck) |
| --- | --- | --- | --- | --- | --- | --- | --- | --- | --- | --- | --- | --- | --- | --- | --- | --- |
| RESFKYLPSSL [CXXC1_Y218_F219L_YF] | 0.455 | 0.353 | 0.919 | 0.429 | 0.431 | 0.512 | 0.837 | 0.347 | 0.862 | 0.561 | 0.567 | 0.286 | 0.329 | 0.395 | 0.469 | 0.381 |
| PGNIVYSSLCG [BCOR_Y90] | 1.51 | 0.579 | 0.875 | 5.73 | 1.02 | 0.914 | 1.65 | 1.18 | 1.62 | 1.38 | 1.83 | 1.6 | 0.892 | 0.987 | 3.13 | 5.25 |
| LSNFNYEQRGA [API5_Y497_G493S] | 0.706 | 0.48 | 0.897 | 1.14 | 1.02 | 0.796 | 1.41 | 0.651 | 1.51 | 1.21 | 1.11 | 0.796 | 0.918 | 1.15 | 1.14 | 0.509 |
| VIESSYTSADG [DHCR7_Y382_C380S] | 0.861 | 4.23 | 0.894 | 0.546 | 0.627 | 0.468 | 0.873 | 0.519 | 0.961 | 0.892 | 0.618 | 0.596 | 0.531 | 0.596 | 0.551 | 0.476 |
| MPIPMYDASQA [CARMIL1_Y637] | 0.75 | 0.537 | 0.887 | 0.46 | 0.629 | 0.867 | 0.717 | 0.565 | 0.73 | 0.751 | 0.824 | 0.566 | 0.595 | 1.01 | 0.643 | 0.552 |
| VNKLVYENING [FRS2_Y306] | 2.03 | 6.33 | 23.9 | 1.78 | 0.454 | 4.71 | 0.539 | 3.63 | 0.8 | 0.665 | 0.524 | 1.64 | 0.52 | 0.75 | 0.95 | 2.67 |
| SGIFQYIIAKF [FOXL2_Y83_YF] | 1.27 | 0.763 | 1.35 | 0.561 | 0.704 | 0.602 | 1.07 | 0.503 | 1.13 | 1.14 | 0.84 | 0.518 | 0.639 | 0.564 | 0.496 | 0.546 |
| LENQTYFKSFE [AKAP9_Y2482] | 0.518 | 0.569 | 0.978 | 0.579 | 0.903 | 1.24 | 1.13 | 0.67 | 1.33 | 1.59 | 0.872 | 0.81 | 0.956 | 1.24 | 1.08 | 1.22 |
| KEEEDYKEENN [BMS1_Y651] | 0.716 | 0.499 | 0.769 | 0.453 | 0.561 | 0.532 | 1 | 0.55 | 1.06 | 1.15 | 0.75 | 0.422 | 0.468 | 0.554 | 0.475 | 0.516 |

More lines, main results first:

| SH2 binding enrichment (SHP2-C SH2) | SH2 binding enrichment (c-Src SH2) | SH2 binding enrichment (Grb2 SH2) | Sequence | phosphorylation enrichment (c-Src) | phosphorylation enrichment (FGFR3) | phosphorylation enrichment (EPHB1) | phosphorylation enrichment (Jak2) | phosphorylation enrichment (Fer (mouse)) | phosphorylation enrichment (Fes) | phosphorylation enrichment (AncSZ) | phosphorylation enrichment (c-Abl (mouse)) | phosphorylation enrichment (MERTK) | phosphorylation enrichment (FGFR1) | phosphorylation enrichment (EPHB2) | phosphorylation enrichment (Fyn) | phosphorylation enrichment (Hck) |
| --- | --- | --- | --- | --- | --- | --- | --- | --- | --- | --- | --- | --- | --- | --- | --- | --- |
| 0.575 | 0.482 | 0.714 | SHLSSYTTHPQ [NIPBL_Y195_P192L] | 0.419 | 0.591 | 0.389 | 0.663 | 0.392 | 0.726 | 0.569 | 0.534 | 0.399 | 0.435 | 0.393 | 0.451 | 0.44 |
| 0.787 | 0.456 | 0.782 | NGQALYAACQT [XDH_Y1092_V1091L] | 3.35 | 0.562 | 9.24 | 0.687 | 6.91 | 0.916 | 0.775 | 2.26 | 6.34 | 0.554 | 9.92 | 3.2 | 4.99 |
| 0.896 | 0.773 | 0.949 | CTTIHYNFMRN [TP53_Y234_C238R_YF] | 0.449 | 0.993 | 0.605 | 0.889 | 0.571 | 1.07 | 1.03 | 0.767 | 0.489 | 0.567 | 0.626 | 0.568 | 0.577 |
| 0.715 | 0.408 | 0.651 | VNFDDYTVNLG [GFPT1_Y367] | 1.19 | 0.741 | 0.787 | 1.39 | 0.493 | 1.2 | 1.39 | 0.69 | 0.487 | 0.705 | 0.691 | 0.833 | 0.528 |
| 0.662 | 0.524 | 0.932 | DNEAIYDICRC [TUBA4A_Y210_R215C] | 6.51 | 0.761 | 1.82 | 0.923 | 7.98 | 1.28 | 3.65 | 10.3 | 5.93 | 0.633 | 4.87 | 9.3 | 7.18 |
| 0.924 | 0.472 | 0.686 | SHMVNYQPYRK [TEX37_Y25_D24N] | 0.401 | 0.353 | 0.317 | 0.385 | 0.293 | 0.49 | 0.528 | 0.368 | 0.351 | 0.394 | 0.332 | 0.375 | 0.396 |
| 1.1 | 0.797 | 1.23 | LSIWPYLQKID [MFSD8_Y63_M58L] | 0.686 | 0.85 | 0.929 | 1.43 | 0.577 | 1.37 | 1.16 | 0.6 | 0.6 | 0.584 | 0.759 | 0.501 | 0.566 |
